The values that follow come from patent US12459997B2, “Compounds and methods targeting interleukin-19” (Eli Lilly and Company, priority 2018, dated 2025).

Test [1] deals with T1, recombinant human IL-19 (Homo sapiens, UniProt Q9UHD0).
T1 sequence (Q9UHD0 25-177): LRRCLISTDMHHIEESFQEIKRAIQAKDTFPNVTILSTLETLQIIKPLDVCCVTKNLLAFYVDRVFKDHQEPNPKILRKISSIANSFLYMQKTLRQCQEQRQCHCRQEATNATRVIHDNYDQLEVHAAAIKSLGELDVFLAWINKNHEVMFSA
Nature of the test: Bio-layer interferometry (BLI) binding kinetics and affinity (Octet Red96). To be noted: 25° C.; 1:1 binding model. The procedure: Bio-layer interferometry (BLI) assay, measured with a Octet Red96® instrument available from ForteBio (using HBS-EP+ running buffer (GE Healthcare, 10 mM Hepes pH7.4+150 mM NaCl+3 mM EDTA+0.05% surfactant P20) at 25° C.), is used to measure binding of the exemplified IL-19 antibodies of the present invention to recombinant human IL-19 (having the amino acid sequence set for in SEQ ID NO: 1).
Except as noted, all reagents and materials are from ForteBio (Freemont, Calif.). An AMQ biosensor is used to immobilize antibody of interest for analysis. […] Recombinant human IL-19 is prepared to concentrations of 270, 90, 30, 10, 3.33, 1.11, 0.370, and 0 (blank) nM by dilution into running buffer. Each analysis consists of: (1) capturing antibody samples on biosensors for 300 secs; (2) establishing a baseline by incubating antibody loaded biosensors with running buffer for 60 secs; (3) incubating antibody loaded biosensors with serially diluted recombinant human IL-19 for 300 secs to monitor association phase; (4) return of biosensor to running buffer to monitor dissociation phase.
Binding data is processed using standard double-referencing and fit to a 1:1 binding model using Data Analysis v9.0 evaluation software, to determine the association rate (kon, M^−1 s^−1 units), dissociation rate (koff, s^−1 units), and Rmax (nm units). The equilibrium dissociation constant (KD) was calculated from the relationship KD=koff/kon, and is in molar units.

Test [2] has as its target T1, recombinant human IL-19. Nature of the test: Binning by cross-competition binding assay (Octet Red96). An excerpt:
Binning experiments involve competing monoclonal antibodies against one another in a pairwise and combinatorial fashion for binding to a specific antigen. A “bin” is a relative concept, based upon the epitope regions represented within the panel of monoclonal antibodies being tested. Two antibodies belong to the same bin if they cannot pair with one another and share the same blocking profile when tested against the other antibodies (or bins of antibodies) in the test panel. Binning of exemplified antibodies of the present invention may be performed by cross-competition binding assays using the Octet Red96®, available from ForteBio, according to manufacturer instruction. Briefly, to determine if two antibodies share overlapping epitope regions, an exemplified antibody is labeled with biotin and captured onto streptavidin sensor tip. The coated biosensor up is then incubated with recombinant human IL-19 to saturate the capture antibody binding sites. The capture antibody-antigen complex is then incubated with a detection antibody. […] Antibodies with a same binding profile are grouped together into the same bin.
(Biolayer interferometry detects binding as a change in optical thickness at a sensor tip.)

Test [3] addresses T2, human IL-19 / human IL-20R beta Fc-fusion protein (Homo sapiens, UniProt Q9UHD0).
T2 sequence (Q9UHD0 25-177): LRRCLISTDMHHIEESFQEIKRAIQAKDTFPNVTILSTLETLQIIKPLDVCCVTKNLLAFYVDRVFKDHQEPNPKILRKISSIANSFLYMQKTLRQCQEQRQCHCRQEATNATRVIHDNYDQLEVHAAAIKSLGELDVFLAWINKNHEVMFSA
Briefly: BLI in vitro neutralization: IL-19 captured by antibody, then incubated with IL-20R beta Fc. To be noted: block of IL-19 binding to soluble receptor. The text has this:
Alternatively, a biophysical assay such as bio-layer interferometry (BLI) may be used for assessing neutralization of IL-19 by antibodies of the present invention. Binding between a ligand immobilized on the biosensor tip surface and an analyte in solution produces an increase in optical thickness at the biosensor tip, which results in a wavelength shift (expressed in nm). According to such assay, the IL-19 receptor (i.e., […]) is expressed in a membrane-free manner (such as with an Fc-fusion e.g. IL20Rbeta Fc chimera protein from R&D Systems catalog 1788-IR-050). […] The immobilized antibodies are then incubated with recombinant human IL-19 protein diluted to 100 nM using HBS-EP+ running buffer (GE Healthcare, 10 mM Hepes pH7.4+150 mM NaCl+3 mM EDTA+0.05% surfactant P20) for 240-300 secs. The human IL-19, after binding to the anti-IL-19 antibody, is assessed by incubation with human IL-20R beta Fc-fusion protein for 240-300 secs. The ability of the antibody to block or neutralize binding of the IL-19 ligand to the soluble receptor is observed as a minimal (<0.025 nm) increase in the wavelength during this step of the assay.

Test [4] concerns the target T1, recombinant human IL-19. Nature of the test: PathHunter eXpress IL20RA/IL20RB dimerization assay (cell-based neutralization). The arrangement: host or cells: PathHunter eXpress IL20RA/IL20RB cells (DiscoverX 93-1027E3) carry the receptor partners. Particulars: eight experiments. The text has this:
PathHunter® eXpress IL20RA/IL20RB dimerization assay (DiscoverX product code 93-1027E3) is used to assess ability of exemplified antibodies to prevent binding of human IL-19 recombinant protein in a cell-based assay format. The assay detects ligand induced dimerization of two subunits of a receptor-dimer pair. The cells have been engineered to co-express one receptor subunit fused to enzyme donor and a second dimer partner fused to enzyme acceptor. Binding of an agonist to one receptor subunit induces it to interact with its dimer partner, forcing complementation of the two enzyme fragments resulting in the formation of a functional enzyme that hydrolizes a substrate to generate a chemiluminescent signal. […] Human IL-19 recombinant protein with and without exemplified antibodies mixture is then incubated with cells overnight at 37° C./5% CO2. Substrate buffer is added to cells and incubated at room temperature for 1 hour in the dark before luminescent detection.

B1: R_4: rabbit-derived IL-19 antibody; LCVR SEQ ID NO: 58, HCVR SEQ ID NO: 62 (antibody, V domains shown)
VH: QCQSVEESGGRLVTPGTPLTLTCTVSGIDLSIYAMGWVRQAPGKGLEYIGIIDTTGTAYYARWAKGRFTISKTSATVALKITSPTTEDTATYFCARDSGSLYYGSYALWGPGTLVTVSS
VL: ADVVMTQTPSSVSEPVGGTVTIKCQASQSIYSYLSWYQQKPGQPPKLLIYEASKLASGVPSRFKGSGSGTQFTLTISGVECADAATYYCQQGYSSSNVDNTFGGGTEVVVT
In the case of B1, in the test with recombinant human IL-19 [1], the kon was 152000 M⁻¹ s⁻¹. Besides, in the test with recombinant human IL-19 [2], the “Binning Group” value came to 4.

B2: R_3: rabbit-derived IL-19 antibody; LCVR SEQ ID NO: 50, HCVR SEQ ID NO: 54 (antibody, V domains shown)
VH: QCQSLEESGGGLVEPEGSLTLTCKASGFSFSSSYWICWVRQAPGKGLEWIACTDTFSGDTYYASWAKGRFTISKTSSTTVTLRMTSLTDADTATYFCARDIFGTAVHISLWGPGTLVTVSS
VL: ADVVMTQTPSSVEAAVGGTVTIKCQASQSIGSSLAWYQQKPGQRPKLLIYGASTLASGVPSRFKGSGSGTEFTLTISDLECADAATYYCQCHYHGSSYWDNSFGGGTEVVVK
Regarding B2, in the test with recombinant human IL-19 [1], the kon came to 391000 M⁻¹ s⁻¹. In addition, in the test with recombinant human IL-19 [2], the “Binning Group” value was determined as 3.

B3: R_1: rabbit-derived IL-19 antibody; LCVR SEQ ID NO: 34, HCVR SEQ ID NO: 38 (antibody, V domains shown)
VH: QQLEESGGGLVQPEGSLTLTCTASGFSFSSSYWICWVRQAPGKGLEWLACIDTGVSGDTYYANWAEGRFTISKTSSTTVTLQMTSLTAADTATYFCARDIFGSAIDNSLWGPGTLVTVSS
VL: AIDMTQTPASVSEPVGGTVTIKCQASQSISSYLAWYQQKPGQPPKLLIYSASTLASGVPSRFRGSGSGREFTLTISDLECADAATYYCQCHYHGSSYWDNSFGGGTEVVVK
As to B3, the kon in the test with recombinant human IL-19 [1] turned out to be 33300 M⁻¹ s⁻¹. In addition, the “Binning Group” value with recombinant human IL-19 [2] came to 3.

B4: R_2: rabbit-derived IL-19 antibody; LCVR SEQ ID NO: 42, HCVR SEQ ID NO: 46 (antibody, V domains shown)
VH: QQLEESGGGLVQPEGSLTLTCTASGFSFSSSYWICWVRQAPGKGLEWLACIDTGVSGDTYYANWAKGRFTISKTSSTTVTLQMTSLTAADTATYFCARDIFGSAIDNSLWGPGTLVTVSS
VL: ADVVMTQTPASVEAAVGGTVTIKCQASESIGNALAWYQQKPGQPPKLLIYDASKLASGVPSRFKGSGSGTQFTLTISDLECADAATYYCQCHYHGSSYWDNSFGGGTEVVVK
On to B4, for which the kon with recombinant human IL-19 [1] was 428000 M⁻¹ s⁻¹. In the test with recombinant human IL-19 [2], the “Binning Group” value is 3.

B5: M_5: murine-derived IL-19 antibody; LC SEQ ID NO: 312, HC SEQ ID NO: 313 (antibody)
heavy: EVQLQQSGPVLVKPGASVKMSCKASGYPFNDYFLGWVKQSHGKSLEWIGSINPDNDYTMSNQKFKGKATLTVDKSSSTAYMELNSLTSEDSAVYYCARYDYDWAWFAHWGQGTLVTVSAAKTTPPSVYPLAPGSAAQTNSMVTLGCLVKGYFPEPVTVTWNSGSLSSGVHTFPAVLQSDLYTLSSSVTVPSSTWPSETVTCNVAHPASSTKVDKKIVPRDCGCKPCICTVPEVSSVFIFPPKPKDVLTITLTPKVTCVVVDISKDDPEVQFSWFVDDVEVHTAQTQPREEQFNSTFRSVSELPIMHQDWLNGKEFKCRVNSAAFPAPIEKTISKTKGRPKAPQVYTIPPPKEQMAKDKVSLTCMITDFFPEDITVEWQWNGQPAENYKNTQPIMDTDGSYFVYSKLNVQKSNWEAGNTFTCSVLHEGLHNHHTEKSLSHSPGK
light: DIVMTQSPSSLAMSVGQKVTMSCKSSQSLLSSYNQKNYLAWYQRKPGQSPKLLVYFASQRATGVPDRFIGSGSGSDFTLTISSVQAEDLADYFCQQHTRLPITFGAGTKLELKRADAAPTVSIFPPSSEQLTSGGASVVCFLNNFYPKDINVKWKIDGSERQNGVLNSWTDQDSKDSTYSMSSTLTLTKDEYERHNSYTCEATHKTSTSPIVKSFNRNEC
Regarding B5, the Neutralization entry in test [3] is reported as “Yes (minimal (<0.025 nm) increase in the wavelength)”. For the same molecule, the “% inhibition +/− SEM (maximum signal inhibition percentage)” value with recombinant human IL-19 [4] is reported as 105.03 +/− 1.38%.

B6: M_1: murine-derived IL-19 antibody; LC SEQ ID NO: 2, HC SEQ ID NO: 6 (antibody)
heavy: EVQLQQSGPVLVKPGASVKMSCKASGYKFTDYFVGWVKQSHGKSLEWIGYVDPENGYTRCNQKFKGKATLTVDKSSSTAYMELNSLTSEDSAVYYCARYDYDWAWFTNWGQGTLVTVSAAKTTPPSVYPLAPGSAAQTNSMVTLGCLVKGYFPEPVTVTWNSGSLSSGVHTFPAVLQSDLYTLSSSVTVPSSTWPSETVTCNVAHPASSTKVDKKIVPRDCGCKPCICTVPEVSSVFIFPPKPKDVLTITLTPKVTCVVVDISKDDPEVQFSWFVDDVEVHTAQTQPREEQFNSTFRSVSELPIMHQDWLNGKEFKCRVNSAAFPAPIEKTISKTKGRPKAPQVYTIPPPKEQMAKDKVSLTCMITDFFPEDITVEWQWNGQPAENYKNTQPIMDTDGSYFVYSKLNVQKSNWEAGNTFTCSVLHEGLHNHHTEKSLSHSPGK
light: DIVMTQSPSSLAMSVGQKVTMSCKSSQSLLSSYNQKNYLAWYQQKPGQSPKLLVYFASTRPPGVPDRFIGSGSGSDFTLTISSVQAEDLADYFCQQHERLPITFGAGTKLELKRADAAPTVSIFPPSSEQLTSGGASVVCFLNNFYPKDINVKWKIDGSERQNGVLNSWTDQDSKDSTYSMSSTLTLTKDEYERHNSYTCEATHKTSTSPIVKSFNRNEC
Consider B6, for which the Neutralization result in test [3] was “Yes (minimal (<0.025 nm) increase in the wavelength)”. Further, in the test with recombinant human IL-19 [4], the “% inhibition +/− SEM (maximum signal inhibition percentage)” value is reported as 98.59 +/− 0.42%.

Broadly, the kon is the rate constant with which the complex forms.
